Assay results from patent US20110176995A1 (Chugai, published 2011).
Blank lines part the entries; values can stand above or below the binder they belong to.

Columns and labels:
mouse GPR49 = target: T1, mouse GPR49 (mouse, UniProt Q9Z1P4 22-907, limits assumed); experiment: Western blotting
T1 construct: Expressed transiently in 293T cells; the cell lysate was analysed by Western blotting; also called mouse (M) GPR49
T1 sequence (looked up): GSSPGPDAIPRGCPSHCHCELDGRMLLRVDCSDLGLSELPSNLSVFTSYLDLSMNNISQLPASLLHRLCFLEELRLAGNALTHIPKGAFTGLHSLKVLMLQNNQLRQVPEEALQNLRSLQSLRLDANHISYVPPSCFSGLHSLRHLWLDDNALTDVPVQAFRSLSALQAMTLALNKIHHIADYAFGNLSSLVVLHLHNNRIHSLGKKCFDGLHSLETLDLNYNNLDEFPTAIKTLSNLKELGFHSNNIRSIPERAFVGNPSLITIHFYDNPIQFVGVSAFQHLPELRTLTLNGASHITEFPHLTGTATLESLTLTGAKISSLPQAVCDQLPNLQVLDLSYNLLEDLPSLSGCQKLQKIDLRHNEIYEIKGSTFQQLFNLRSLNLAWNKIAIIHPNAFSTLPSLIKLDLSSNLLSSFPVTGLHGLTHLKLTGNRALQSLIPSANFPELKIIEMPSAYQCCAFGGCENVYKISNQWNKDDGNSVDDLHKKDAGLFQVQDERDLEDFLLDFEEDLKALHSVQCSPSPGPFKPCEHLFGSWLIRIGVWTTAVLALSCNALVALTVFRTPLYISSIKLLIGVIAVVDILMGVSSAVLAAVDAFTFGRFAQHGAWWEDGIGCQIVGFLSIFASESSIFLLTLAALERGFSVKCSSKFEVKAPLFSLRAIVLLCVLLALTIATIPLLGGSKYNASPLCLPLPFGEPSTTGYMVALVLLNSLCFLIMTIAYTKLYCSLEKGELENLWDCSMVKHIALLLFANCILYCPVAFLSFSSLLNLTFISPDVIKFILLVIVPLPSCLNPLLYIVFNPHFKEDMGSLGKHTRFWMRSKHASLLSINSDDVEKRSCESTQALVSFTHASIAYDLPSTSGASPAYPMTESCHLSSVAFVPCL

human GPR49 protein [1] = target: T2, human GPR49 protein (human, UniProt O75473 22-907); experiment: Western blotting of LoVo cell lysate
T2 construct: also called LGR5; GPR49 molecule
T2 sequence: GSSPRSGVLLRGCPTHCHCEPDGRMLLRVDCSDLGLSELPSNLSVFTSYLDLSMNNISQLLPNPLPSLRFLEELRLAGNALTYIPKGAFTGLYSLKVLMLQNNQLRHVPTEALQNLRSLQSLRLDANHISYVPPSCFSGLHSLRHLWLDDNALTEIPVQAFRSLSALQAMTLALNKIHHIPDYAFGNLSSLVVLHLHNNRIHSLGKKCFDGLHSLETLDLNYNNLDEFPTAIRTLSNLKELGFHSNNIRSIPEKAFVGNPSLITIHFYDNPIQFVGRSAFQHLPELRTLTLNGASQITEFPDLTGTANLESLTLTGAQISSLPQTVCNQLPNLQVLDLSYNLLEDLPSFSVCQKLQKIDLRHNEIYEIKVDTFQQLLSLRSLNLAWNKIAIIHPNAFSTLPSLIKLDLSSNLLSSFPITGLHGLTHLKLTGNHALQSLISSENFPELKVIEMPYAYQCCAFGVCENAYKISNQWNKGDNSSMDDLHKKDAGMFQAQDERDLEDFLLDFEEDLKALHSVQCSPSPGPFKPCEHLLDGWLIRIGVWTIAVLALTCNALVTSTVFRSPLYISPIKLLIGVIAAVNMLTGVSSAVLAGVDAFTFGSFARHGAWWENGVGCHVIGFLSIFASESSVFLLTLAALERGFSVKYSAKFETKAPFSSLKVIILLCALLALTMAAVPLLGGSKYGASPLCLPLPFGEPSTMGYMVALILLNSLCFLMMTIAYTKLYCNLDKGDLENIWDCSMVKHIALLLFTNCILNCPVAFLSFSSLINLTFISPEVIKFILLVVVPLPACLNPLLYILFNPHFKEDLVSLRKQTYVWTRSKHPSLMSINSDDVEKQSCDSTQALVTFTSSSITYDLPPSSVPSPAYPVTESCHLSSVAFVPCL

[2] = target: T3, HA-GPR49 (full-length human GPR49 with an HA-tag inserted at the N-terminus) (human, UniProt O75473 22-907); experiment: flow cytometry, hybridoma supernatant on 2B10 cells against parental DG44
T3 construct: Expressed in DG44 cells (line 2B10) and, inducibly with doxycycline, in 293FlpIn T-Rex cells (lines B2, B4); On whole cells in flow cytometry and cytotoxicity assays; as cell lysate in Western blotting and immunoprecipitation; also called human GPR49/DG44 cells (2B10); HA-GPR49-expressing DG44 cell line 2B10; not shown: HA-tag inserted at the N-terminus of GPR49
T3 sequence: T2 sequence
Experimental: The binding to the human GPR49/DG44 cells (2B 10) was evaluated by flow cytometry using the obtained hybridomas. The cell lines expressing human GPR49 suspended in FACS buffer (2% FBS/PBS/0.05% NaN₃) were diluted to 1×10⁶ cells/mL with FACS buffer, and then aliquoted at 50 μL/well into a Falcon 353910 round-bottom 96-well plate. Hybridoma culture supernatant diluted to a suitable concentration was added to the wells containing the cells and reacted for 60 minutes on ice. Then, the cells were washed once with FACS buffer. Goat F(ab′)₂ fragment anti-mouse IgG(H+ L)-FITC (Beckman Coulter) was added to the wells containing the cells as a secondary antibody, and reacted for 30 minutes on ice. After reaction, the supernatant was removed by centrifugation, and then the cells suspended in 100 μL of FACS buffer were subjected to flow cytometry. A FACS Calibur (Becton Dickinson) was used for flow cytometry. The viable cell population was gated with a forward scatter-side scatter dot blot, an FL1 histogram was made of the cells contained in the population, and binding activity thereof was evaluated.
When the hybridoma supernatants were reacted with 2B 10 in which GPR49 is induced and expressed in DG44 cells and with the parental cell line DG44 respectively, hybridomas that specifically reacted with GPR49-expressing cells were obtained. The hybridomas from these wells were made into single clones by the limiting dilution method. The isotype of each antibody was analyzed using an IsoStrip™ mouse monoclonal antibody isotyping kit (Roche Diagnostics). As a result, 2J18-1N and 2J18-3 were IgM, and 2L7-8, 2L9-3, 2L10-19, 2L13-3, 2L15-12, 2L16-15, 2L18-15, 2L33-6, 2L34-5, 2L36-12, 2T4E-6, 2T9E1#14, 2T15E-2, 2T42E-4, 2T54-2, 2T65-3, 2T37-16, 2U1E-1, 2U2E-2, and 2U4E-11 were IgG1. Culturing of the hybridomas made into single clones was scaled up, and then the antibodies were purified from the culture supernatant using a protein G column in accordance with the manual. The IgM antibodies were purified using a protein L column in accordance with the manual. The purified antibodies were quantified by DC Protein Assay or such.

human GPR49 protein [3] = target: T2, human GPR49 protein; experiment: flow cytometry, 10 ug/mL antibody on OVSAHO, Alexander and NUGC-4 cells
Experimental: The reactivity of 2T15E-2 antibody to human cancer cell lines were analyzed by flow cytometry. Human cancer cell lines suspended in a FACS buffer (2% FBS/PBS/0.05% NaN₃) were diluted to 1×10⁶ cells/mL with the FACS buffer, and the solutions were then dispensed into a Falcon 353910 round-bottom 96-well plate at 50 μL/well. 2T15E-2 antibody diluted to a concentration of 10 μg/mL was added, and this was reacted for 60 minutes on ice. Next, the cells were washed once with the FACS buffer. After adding Goat F(ab′)₂ fragment anti-mouse IgG (Fcγ)-FITC (Beckman Coulter) as a secondary antibody to the wells containing the cells, this was reacted for 30 minutes on ice. After the reaction, the supernatant was removed by centrifugation, and then the cells were suspended in 100 μL of FACS buffer containing propidium iodide (PI) and then subjected to flow cytometry. A FACS Calibur (Becton Dickinson) was used for the flow cytometry. The viable cell population was gated with a forward scatter-side scatter dot blot, an FL1 histogram was made of the cells contained in the population, and binding activity thereof was evaluated.
The peaks indicated with a solid line indicate the reactivity with cancer cell lines, and the shaded regions represent the peaks obtained when the reactions are carried out without antibodies. […]

[4] = target: T3, HA-GPR49 (full-length human GPR49 with …); experiment: immunoprecipitation from 2B10 cell lysate, Western blot detection
Experimental: To confirm the presence of the 40-kDa and 60-kDa protein bands detected in Western blotting, immunoprecipitation experiments were carried out using GPR49 monoclonal antibodies. Cell lysate prepared by solubilizing HA-GPR49-expressing DG44 cell line 2B10 in NP40 lysis buffer (0.5% NP40, 50 mM Tris-HCl (pH7.5), 150 mM NaCl, protease inhibitor complete mini (Roche)) was used as the sample for immunoprecipitation. The amount of protein included in the cell lysate was quantified by DC Protein Assay using BSA as a standard. A solution containing 2 μg of antibody was added to 500 μL of cell lysate containing 100 μg of protein, and this was reacted at 4° C. for one hour. Additionally, 20 μL of Protein A/G Plus agarose (Santa Cruz) was added and this was reacted overnight. Agarose beads were centrifugated at 1,000×g for one minute, washed twice with 1 mL of PBS, and then antigens bound to the antibodies were eluted by adding 50 μL of 2×SDS-sample buffer and warming at 60° C. for 30 minutes. After centrifuging at 1,000×g for one minutes, 15 μL of the supernatant obtained was subjected to SDS-PAGE. […] As is seen in the lanes for the samples immunoprecipitated using 2L13-3 and 2L36-12, a 40-kDa band and a 60-kDa band in addition to the 100-kDa band could surely be detected using 2U1E-1 and 2U2E-2, respectively. […]

B1: anti-GPR49 monoclonal antibody 2U1E-1 (antibody, mouse IgG1, V domains shown)
VH: QVQLQQPGAELVEPGASVKLSCKASGYTFTNYYMYWVKQRPGQGLEWIGGINPNNGGTNFNEKFKSKATLTVDKSSSTAYMQLSSLTSEDSAVYYCTGIYYRYNWHFGVWGAGTTVTVSS
VL: DVLMTQTPLSLPVSLGDQASISCRSSQTIVHSNGNTYLEWYLQKPGQSPKLLIYKVSNRFSGVPDRFSGSGSGTDFTLKIYRVEAEDLGIYYCFQGSHVPWTFGGGTKLEIK
notes: Mouse IgG1 from hybridoma; light chain amplified with a kappa primer
binding result (mouse GPR49): binds
binding result (human GPR49 protein [1]): binds
binding result [2]: binds

B2: anti-GPR49 monoclonal antibody 2T15E-2 (antibody, mouse IgG1, V domains shown)
VH: EVQLVESGGGLVKPGGSLKISCAASGFTSSNYAMSWVRQTPEKRLEWVATISSGGGYTYYPDSEKGRFAISRDNAKNTLYLQMSGLRSEDTAMYYCATQLYYRSHYYSMDYWGQGSSVTVSS
VL: QIVLTQSPAIMSASPGEKVTMTCSASSSISYMHWYQQKSGTSPKRWIYDTSKLASGVPARFSGSGSGTSYSLTISSMEAEDAATYYCQQWHSKPATFGAGTKLELK
notes: as for B1
binding result (human GPR49 protein [3]): binds
binding result [2]: binds

B3: anti-GPR49 monoclonal antibody 2L36-12 (antibody, mouse IgG1, V domains shown)
VH: QVQLQQSGAELVRPGTSVKVSCKASGYDFTNYLIEWVNQRPGQGLEWIGVINPGSGGTNYNEKFKGKATLTADKSSSTAYMQLSSLTSDDSAVYLCARYSPYGNYFDYWGQGTTLTVSS
VL: DIVMTQSHKFMSTSVGDRVSITCRASQDVGTAVAWYQQKPGQSPKLLIYWASTRHTGVPDRFTGSGSGTDFTLTINNVQSEDLADYFCQQYSSYPPTFGGGTKLEIK
notes: as for B1
binding result [2]: binds

B4: anti-GPR49 monoclonal antibody 2U2E-2 (antibody, mouse IgG1, V domains shown)
VH: EVKLVESGGDLVKPGGSLKLSCAASGFIFSTYAMSWVRQIPEKRLEWVASISPDGNTFYPDSLKGRFTISRDNVRNILYLQMSSLRSEDTAMYYCAVTGTFAYWGQGTLVTVSG
VL: DVLMTQTPLSLPVSLGDQASISCRSSQNILHSDGNTYLEWFLQKPGQSPKLLIFKISNRFPGVPDRFSGSGSGTDFTLKISRVEAEDLGVYYCFQSSHVPYTFGGGTKLEIK
notes: as for B1
binding result (mouse GPR49): binds
binding result (human GPR49 protein [1]): binds
binding result [2]: binds

The next lines start with the values.

binding result [2]: binds
B5: anti-GPR49 monoclonal antibody 2J18-1N (antibody, mouse IgM, V domains shown)
VH: EVQLQQSGPELVKPGDSVKMSCKASGYTFTDYYMDWVKQSHGKSLEWIGYIYPNNGGTSYNQKFKGKATLTVDKSSSTAYMELHSLTSEDSAVYYCARPYYSNSFAYWGQGTLVTVSA
VL: QIVLTQSPAIMSASPGEKVTMTCRASSSVSSSYLHWYQQKPGSSPKLWIYSTSNLASGVPARFSGSGSGTSYSLTISSVEAEDAATYYCQQYDSSPFTFGTGTKLEIK
notes: Mouse IgM from hybridoma; light chain amplified with a kappa primer

binding result [4]: binds
B6: anti-GPR49 monoclonal antibody 2L13-3 (antibody, mouse IgG1, V domains shown)
VH: QVQLQQSGAELVRPGTSVKMSCKAAGYTFTNSWIGWVKQRPGHGLEWIGDIYPGGDYTNYNEKFKGKATLTADTSSSTAYMQLSSLTSEDAAIYYCTRGDGYFDYWGQGTTLTVSS
VL: DIVMTQSHKFMSTSVGDRVSITCKASQDVSIDVAWYQQRPGQSPKLLIYSASYRYTGVPDRFTGSGSGTDFTFTVSSVQAEDLAVYYCQQHYSTPPTFGGGTKLEIK
notes: as for B1
